The target in this assay is bovine FSH hormone receptor expressed on HEK 293T cells (bovine) (UniProt P35376). Briefly: cell-based or functional assay.
Chain of UniProt P35376 (P35376 18-695): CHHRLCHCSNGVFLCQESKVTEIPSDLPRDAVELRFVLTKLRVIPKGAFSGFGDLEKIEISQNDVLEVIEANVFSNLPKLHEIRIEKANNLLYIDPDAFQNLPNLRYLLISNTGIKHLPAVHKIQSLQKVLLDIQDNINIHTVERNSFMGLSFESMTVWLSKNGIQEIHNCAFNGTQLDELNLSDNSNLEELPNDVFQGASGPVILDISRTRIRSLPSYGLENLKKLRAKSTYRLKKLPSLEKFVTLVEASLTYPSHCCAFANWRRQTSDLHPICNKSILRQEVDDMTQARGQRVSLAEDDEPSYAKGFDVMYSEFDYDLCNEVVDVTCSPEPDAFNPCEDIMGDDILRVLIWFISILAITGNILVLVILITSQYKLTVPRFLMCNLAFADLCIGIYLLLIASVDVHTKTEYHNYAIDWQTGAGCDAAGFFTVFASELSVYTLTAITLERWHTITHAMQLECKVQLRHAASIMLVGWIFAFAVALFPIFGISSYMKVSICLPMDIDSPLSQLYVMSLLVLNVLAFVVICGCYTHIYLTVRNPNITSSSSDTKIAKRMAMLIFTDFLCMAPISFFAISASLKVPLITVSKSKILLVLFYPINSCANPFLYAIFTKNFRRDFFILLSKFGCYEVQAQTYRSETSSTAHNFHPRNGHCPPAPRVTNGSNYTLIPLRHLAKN

In the case of “recombinant single chain equine chorionic gonadotropin CTP-BetaCTP-CTP-Alpha (CONSTRUCT #6) (ligand)”, the biological activity in vitro by stimulation of luciferase activity amounted to 4770 IU/mg. The substance “recombinant single chain equine chorionic gonadotropin BetaCTP-CTP-Alpha (CONSTRUCT #4) (ligand)” gave a biological activity in vitro by stimulation of luciferase activity of 13300 IU/mg. For “recombinant single chain equine chorionic gonadotropin NTP-BetaCTP-CTP-Alpha (CONSTRUCT #5) (ligand)”, the Estimated potency in vitro (sample 5G) was 6200 IU/mg; the biological activity in vitro by stimulation of luciferase activity is 4010 IU/mg; the in vitro FSH activity (CRE-luciferase reporter, HEK 293T cells with bovine FSH receptor); affinity purified construct #5 from transiently transfected CHO cells is 61 IU.

These data come from patent US20220289810A1.
